# Tests used:
# [1] = target: T1, recombinant human HGF (R&D Systems, Catalog No. 294-HGN-025) (human, UniProt P14210 32-728); assay: cell-based or functional assay
# [2] = target: T1, recombinant human HGF (R&D Systems, …); assay: cell-based or functional assay; remark: listed apart in the source
# [3] = target: T2, recombinant mouse HGF (R&D Systems) (mouse, UniProt Q08048 33-728); assay: SPR, antibody immobilized, HGF protein injected, 25 C
# T2 construct: Bought protein, construct not described; also called rmHGF (R&D Systems); murine HGF
# T2 sequence (Q08048 33-728 limits assumed): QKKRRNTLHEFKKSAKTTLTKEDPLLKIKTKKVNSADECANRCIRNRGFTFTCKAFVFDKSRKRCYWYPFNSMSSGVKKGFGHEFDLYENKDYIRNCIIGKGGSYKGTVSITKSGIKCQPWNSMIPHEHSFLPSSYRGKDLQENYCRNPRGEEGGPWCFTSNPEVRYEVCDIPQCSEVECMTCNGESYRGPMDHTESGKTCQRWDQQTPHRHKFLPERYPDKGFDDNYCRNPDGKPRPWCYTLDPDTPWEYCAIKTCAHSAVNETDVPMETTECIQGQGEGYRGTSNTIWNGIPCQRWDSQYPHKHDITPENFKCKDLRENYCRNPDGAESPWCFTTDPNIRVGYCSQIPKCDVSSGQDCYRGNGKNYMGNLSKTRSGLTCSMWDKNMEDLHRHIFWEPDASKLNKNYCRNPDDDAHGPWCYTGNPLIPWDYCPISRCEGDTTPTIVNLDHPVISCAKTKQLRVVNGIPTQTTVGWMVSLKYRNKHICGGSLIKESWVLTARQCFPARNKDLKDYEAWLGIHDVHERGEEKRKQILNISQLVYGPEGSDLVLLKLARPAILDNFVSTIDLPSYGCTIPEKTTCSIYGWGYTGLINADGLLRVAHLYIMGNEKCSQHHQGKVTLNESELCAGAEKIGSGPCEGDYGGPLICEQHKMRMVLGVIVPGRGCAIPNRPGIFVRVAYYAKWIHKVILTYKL
# Method: (§1) Each antibody was immobilized on a carboxymethylated dextran CM5 sensor chip (BIAcore, Catalog No. BR-1006-68) by amine coupling (BIAcore, Catalog No. BR-1000-50) using a standard coupling protocol according to manufacturer's instructions.
# (§2) Analyses were performed at 25° C. using PBS (GIBCO, Catalog No. 14040-133) containing 0.05% surfactant P20 (BIAcore, Catalog No. R-1000-54), 2 mg/mL BSA (EMD, Catalog No. 2930) and 10 mg/mL CM-Dextran Sodium salt (Fluka, Catalog No. 86524) as running buffer. […] The resulting binding was determined as resonance units (RU) over baseline 30 seconds after the end of injection. […] Non-specific binding was monitored by comparing binding to a control surface where mouse IgG (Rockland, Catalog No. 010-0102) was immobilized using the same amine coupling procedure.
# [4] = target: T3, recombinant mouse-human-mouse (mhm) chimeric HGF protein containing the human V495-L585 HGF sequence disposed … (mouse-human-mouse chimera, UniProt Q08048 56-728); assay: as above
# T3 construct: CHO supernatant was used; also called mhm chimera (V495-L585); MHM chimera (495-585)
# T3 chain: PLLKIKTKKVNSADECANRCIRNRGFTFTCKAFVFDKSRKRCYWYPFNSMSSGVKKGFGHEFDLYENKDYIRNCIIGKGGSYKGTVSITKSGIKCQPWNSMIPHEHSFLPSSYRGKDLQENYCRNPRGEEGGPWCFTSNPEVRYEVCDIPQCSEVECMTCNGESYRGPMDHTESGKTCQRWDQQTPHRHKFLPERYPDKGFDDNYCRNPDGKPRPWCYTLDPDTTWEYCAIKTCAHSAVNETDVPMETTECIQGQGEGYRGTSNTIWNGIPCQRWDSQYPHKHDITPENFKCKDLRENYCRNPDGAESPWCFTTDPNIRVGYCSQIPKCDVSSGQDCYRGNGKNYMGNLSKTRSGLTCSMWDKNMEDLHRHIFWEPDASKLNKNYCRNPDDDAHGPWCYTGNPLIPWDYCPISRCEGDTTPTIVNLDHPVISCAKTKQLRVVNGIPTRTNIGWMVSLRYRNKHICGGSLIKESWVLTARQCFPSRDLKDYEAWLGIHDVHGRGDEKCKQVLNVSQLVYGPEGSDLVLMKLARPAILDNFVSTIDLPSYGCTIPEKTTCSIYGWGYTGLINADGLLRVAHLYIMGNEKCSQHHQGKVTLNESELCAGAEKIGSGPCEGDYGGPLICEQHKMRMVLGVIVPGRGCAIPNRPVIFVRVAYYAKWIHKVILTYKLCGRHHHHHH
# Method: as §1, §2
# [5] = target: hHGF-Fc G555E (recombinant hHGF protein containing a glycine to glutamate substitution at position 555) (human); assay: as above
# Chain of hHGF-Fc G555E (recombinant hHGF protein containing a glycine to glutamate substitution at position 555) (human) (chain, as listed by the source G555E G555E limits assumed): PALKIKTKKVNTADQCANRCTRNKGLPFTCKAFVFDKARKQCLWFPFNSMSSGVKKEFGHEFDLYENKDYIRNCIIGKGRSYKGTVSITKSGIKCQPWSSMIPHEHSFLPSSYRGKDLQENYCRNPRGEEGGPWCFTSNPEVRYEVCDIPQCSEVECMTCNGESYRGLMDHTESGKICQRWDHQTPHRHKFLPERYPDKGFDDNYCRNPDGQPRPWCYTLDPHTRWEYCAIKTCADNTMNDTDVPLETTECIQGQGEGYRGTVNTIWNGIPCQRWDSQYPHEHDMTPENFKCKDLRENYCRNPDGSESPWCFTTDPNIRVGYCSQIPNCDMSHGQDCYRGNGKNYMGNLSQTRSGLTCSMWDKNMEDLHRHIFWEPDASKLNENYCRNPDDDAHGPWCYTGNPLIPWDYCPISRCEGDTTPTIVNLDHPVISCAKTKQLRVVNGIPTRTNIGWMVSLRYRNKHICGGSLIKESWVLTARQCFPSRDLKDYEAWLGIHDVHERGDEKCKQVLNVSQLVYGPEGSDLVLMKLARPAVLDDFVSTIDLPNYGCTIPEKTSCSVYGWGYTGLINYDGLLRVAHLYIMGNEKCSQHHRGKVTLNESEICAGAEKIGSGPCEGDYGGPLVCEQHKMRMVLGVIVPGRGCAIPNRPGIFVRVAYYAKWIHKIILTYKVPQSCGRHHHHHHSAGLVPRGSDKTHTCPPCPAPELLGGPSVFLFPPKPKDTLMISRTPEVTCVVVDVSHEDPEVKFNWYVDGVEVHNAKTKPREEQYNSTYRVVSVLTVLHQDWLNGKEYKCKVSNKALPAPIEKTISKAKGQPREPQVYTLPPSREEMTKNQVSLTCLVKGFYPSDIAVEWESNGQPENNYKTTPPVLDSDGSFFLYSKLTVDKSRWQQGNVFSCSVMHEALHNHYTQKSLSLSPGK
# Method: as §1, §2
# [6] = target: hHGF-Fc C561R (recombinant hHGF protein containing a cysteine to arginine substitution at position 561) (human); assay: as above
# Chain of hHGF-Fc C561R (recombinant hHGF protein containing a cysteine to arginine substitution at position 561) (human) (chain, as listed by the source C561R C561R limits assumed): as the sequence (chain, as listed by the source G555E G555E limits assumed) above, with E501G, C507R counted along it
# Method: as §1, §2
# [7] = target: T1, recombinant human HGF (R&D Systems, …); assay: competition ELISA (DELFIA): antibody inhibits c-Met binding to plate-coated HGF
# Method: The plates then were blocked with 200 μL of 5% non-fat dry milk in PBS for 1 hour at room temperature. […] 100 μL of sample per well was transferred to the assay plate and incubated overnight at 4° C.
# The resulting plates then were washed three times with PBS-0.1% Tween 20, and incubated for 1 hour at room temperature with Eu-labeled Streptavidin (Wallac, Catalog No. 1244-360) diluted 1:1000 in DELFIA assay buffer (Wallac, Catalog No. 4002-0010). The resulting plates were washed 3 times with DELFIA wash solution (Wallac, Catalog No. 4010-0010) and incubated with 100 μL/well DELFIA enhancement solution (Wallac #4001-0010) for 15 minutes at room temperature with agitation.
# The plates were read on Victor³V instrument (Perkin Elmer) using the Europium method.
# [8] = target: T1, recombinant human HGF (R&D Systems, …); assay: SPR, antibody captured by anti-mouse Ig, HGF injected, 25 C
# Method: Rabbit anti-mouse immunoglobulins (BIAcore, Catalog No. BR-1005-14) were immobilized on carboxymethylated dextran CM5 sensor chips (BIAcore, Catalog No. BR-1006-68) by amine coupling (BIAcore, Catalog No. BR-1000-50) using a standard coupling protocol according to manufacturer's instructions. The analyses were performed at 25° C. using PBS (GIBCO, Catalog No. 14040-133) containing 0.05% surfactant P20 (BIAcore, Catalog No. BR-1000-54), 2 mg/mL BSA (EMD, Catalog No. 2930), and 10 mg/mL CM-Dextran Sodium salt (Fluka, Catalog No. 86524) as running buffer.
# The antibodies were captured in an individual flow cell at a flow rate of 10 μL/min. Injection time was variable for each antibody to yield approximately 20 RU of antibody captured for each cycle. […] The dissociation phase was monitored for 15 or 90 minutes, depending on concentration. The surface then was regenerated with 10 mM Glycine-HCl, pH 1.7 (BIAcore, Catalog No. BR-1003-54) injected for 3 minutes at a flow rate of 60 μL/min before another cycle was initiated.
# Kinetic parameters were determined using the kinetic function of the BIAevalutation software with reference subtraction.
# T1 sequence (P14210 32-728 limits assumed): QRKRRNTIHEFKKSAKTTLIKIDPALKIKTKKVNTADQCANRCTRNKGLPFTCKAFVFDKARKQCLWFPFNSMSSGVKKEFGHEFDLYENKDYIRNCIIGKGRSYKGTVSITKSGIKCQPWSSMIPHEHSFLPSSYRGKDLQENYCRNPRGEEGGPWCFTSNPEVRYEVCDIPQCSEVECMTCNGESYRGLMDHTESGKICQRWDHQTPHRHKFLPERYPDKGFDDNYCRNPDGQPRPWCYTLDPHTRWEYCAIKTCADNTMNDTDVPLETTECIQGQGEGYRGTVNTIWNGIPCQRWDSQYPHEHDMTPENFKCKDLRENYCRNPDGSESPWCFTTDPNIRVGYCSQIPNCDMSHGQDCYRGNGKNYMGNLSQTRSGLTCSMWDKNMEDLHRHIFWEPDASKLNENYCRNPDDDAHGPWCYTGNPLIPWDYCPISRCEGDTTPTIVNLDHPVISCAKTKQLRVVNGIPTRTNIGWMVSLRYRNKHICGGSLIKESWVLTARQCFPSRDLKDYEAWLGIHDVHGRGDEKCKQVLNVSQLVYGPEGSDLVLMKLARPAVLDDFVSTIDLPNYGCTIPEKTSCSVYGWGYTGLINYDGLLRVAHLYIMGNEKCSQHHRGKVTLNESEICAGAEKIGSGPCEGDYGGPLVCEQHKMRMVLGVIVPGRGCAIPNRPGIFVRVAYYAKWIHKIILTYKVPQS
"IC50, neutralization of HGF stimulated BrdU incorporation in 4 MBr-5 cells [1]","EC50, inhibition of HGF-stimulated c-Met phosphorylation in PC-3 cells, Average of Two Trials [2]",binding result [3],binding result [4],binding result [5],binding result [6],IC50 [7],Kd [8],koff [8],kon [8],Binder
51.1 nM,2.28 nM,no binding,no binding,binds,binds,5.66 nM,–,–,–,"anti-hHGF monoclonal antibody 3D11 (antibody, mouse IgG1, kappa, V domains shown, Murine IgG1 kappa from hybridoma) VH: QVQLKESGPGLVAPSQSLSITCTVSGFSLTSYSLHWVRQPPGKGLEWLGVIWAGGNTNYNSSLMSRLTIRKDNSKSQVFLKMNSLQTDDTAMYYCARERFAYWGQGTLVTVSA VL: QIVLTQSPAIMSAYPGEKVTMTCSASSSVSYMHWYQQKSGTSPKRWIYDTSKLASGVPARFSGSGSGTSYSLTISSMEAEDAATYYCQQWSSNPLTFGAGTKLELKR"
4.69 nM,0.684 nM,no binding,no binding,binds,binds,5.65 nM,0.0301 nM,5.2e-05 s⁻¹,1.7e+06 M⁻¹ s⁻¹,"anti-hHGF monoclonal antibody 1A3 (antibody, mouse IgG1, kappa, V domains shown, Murine IgG1 kappa from hybridoma) VH: EVQLVESGGGLVQPGGSLKLSCAASEFTFSNYYMSWVRQTPEKRLQWVAYISPGGGSSYYPASVKGRFTISRDNAKNTLYLQMSSLKSEDTAMYYCARQGDGYYGDYAMDYWGQGTSVTVSS VL: DIQMTQSPASLSVSVGETVTITCRASENIYSNLAWYQQKQGKSPQLLVYAATNLADGVPSRFSGSGSGTQFSLKINSLQSEDFGTYYCQHFWGTPYTFGGGTKLEIKR"
30.3 nM,2 nM,no binding,no binding,binds,binds,5.26 nM,0.103 nM,0.00016 s⁻¹,1.6e+06 M⁻¹ s⁻¹,"anti-hHGF monoclonal antibody 3A12 (antibody, mouse IgG1, kappa, V domains shown, Murine IgG1 kappa from hybridoma) VH: EVQLVESGGGLVQPGGSLKISCAASGFTFSNYFMSWVRQTPEKRLEWVAYISSGGGSTYYPDSVKGRFTISRDNAKNTLYLQMNSLKSEDTAMYYCVRQGDGYYGDYAMDYWGQGTSVTVSS VL: DIQMTQSPASLSVSVGETVTITCRASENIYINLAWYQQKQGKSPQLLVHAATKLADGVPSRFSGSGSGTQYSLKINSLQSEDFGSYYCQHFWGTPYTFGGGTKLEIKR"
19.2 nM,1.39 nM,binds,no binding,binds,binds,5.36 nM,–,–,–,"anti-hHGF monoclonal antibody 2F8 (antibody, mouse IgG1, kappa, V domains shown, Murine IgG1 kappa from hybridoma) VH: QVQLKQSGAELVRPGTSVKMSCKASGYTFTTYYIHWVNQRPGQGLEWIGKIGPGSGSTYYNEMFKDKATLTVDTSSSTAYMQLSSLTSDDSAVYFCARRGLGRGFDYWGQGTTLTVSS VL: DIVLTQSPASLAVSLGQRATISCKASQSVDYDGNSYINWYQQKPGQPPKVLIYVASNLESGIPARFSGSGSGTDFTLNIHPVEEEDAATYYCQQSIEDPPTFGAGTKLELKR"
36.1 nM,1.01 nM,no binding,no binding,binds,binds,–,0.017 nM,3.9e-05 s⁻¹,2e+06 M⁻¹ s⁻¹,"anti-hHGF monoclonal antibody 3B6 (antibody, mouse IgG1, kappa, V domains shown, Murine IgG1 kappa from hybridoma) VH: QVQLQQSGAELVRPGSSVKISCKASGYVFSSYWMNWVKQRPGQGLEWIGQIYPGDGDSNYNGNFKGKATLTADKSSSTAYMQLSSLTSEDSAVYFCASQLGLRENYFDYWGQGTTLTVSS VL: DIKMTQSPSSMYASLGERVTITCKASQDIKSYLSWFQQKPGKSPKTLIYRVNRLVDGVPSRFSGSGSGQDSSLTITSLENEDMGIYYCLQYDEFPFTFGGGTKLEIKR"
